Experimental data as given in patent US20020098541A1 (published 2002).

How the values were obtained:
Test in all cases: co-immunoprecipitation from co-transfected 293 cell lysates: anti-FLAG IP, anti-HA immunoblot
FLAG tagged TRAF 2 = target: T1, FLAG tagged TRAF 2 (UniProt Q12933 1-501, limits assumed)
T1 sequence (looked up): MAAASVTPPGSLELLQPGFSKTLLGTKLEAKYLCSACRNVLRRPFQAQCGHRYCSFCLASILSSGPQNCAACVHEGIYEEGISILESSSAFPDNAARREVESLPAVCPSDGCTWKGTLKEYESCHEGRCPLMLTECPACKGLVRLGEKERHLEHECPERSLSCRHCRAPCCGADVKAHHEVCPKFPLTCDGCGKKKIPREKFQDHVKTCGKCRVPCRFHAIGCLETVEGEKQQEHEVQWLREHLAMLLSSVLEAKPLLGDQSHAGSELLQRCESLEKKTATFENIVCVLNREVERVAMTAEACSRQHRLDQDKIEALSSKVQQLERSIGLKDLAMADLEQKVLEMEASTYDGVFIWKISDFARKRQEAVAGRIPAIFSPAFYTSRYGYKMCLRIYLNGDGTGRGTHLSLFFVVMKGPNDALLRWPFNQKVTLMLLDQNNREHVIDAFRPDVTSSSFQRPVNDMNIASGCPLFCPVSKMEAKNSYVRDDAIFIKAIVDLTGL
Method: (§1) For TRAF binding assays, 5×10⁵ 293 cells were transfected with 10 μg of HA tagged TR12 and 10 μg of FLAG tagged TRAF 1, 2, 3, 5, or 6 by the calcium phosphate method and cells were harvested 48 hours post transfection in lysis buffer (with 1% NP-40). Whole cell lysates were immunoprecipated with anti-FLAG M2 beads (Sigma, MO), washed 5× with lysis buffer (without BSA), boiled 5 minutes, separated by 10% SDS PAGE, transferred to nitrocellulose, probed with anti-HA HRP (Roche), and developed with ECL (Amersham).
(§2) Since NF-κB activation by TNFR superfamily members is mediated primarily by the TRAF family of signaling molecules, the ability of TR12 to bind any of the TRAF molecules was studied. 293 cells were co-transfected with a FLAG tagged TRAF expression plasmid and a hemagglutinin tagged TR12 expression plasmid.

FLAG tagged TRAF 6 = target: T2, FLAG tagged TRAF 6 (UniProt Q9Y4K3 1-522, limits assumed)
T2 sequence (looked up): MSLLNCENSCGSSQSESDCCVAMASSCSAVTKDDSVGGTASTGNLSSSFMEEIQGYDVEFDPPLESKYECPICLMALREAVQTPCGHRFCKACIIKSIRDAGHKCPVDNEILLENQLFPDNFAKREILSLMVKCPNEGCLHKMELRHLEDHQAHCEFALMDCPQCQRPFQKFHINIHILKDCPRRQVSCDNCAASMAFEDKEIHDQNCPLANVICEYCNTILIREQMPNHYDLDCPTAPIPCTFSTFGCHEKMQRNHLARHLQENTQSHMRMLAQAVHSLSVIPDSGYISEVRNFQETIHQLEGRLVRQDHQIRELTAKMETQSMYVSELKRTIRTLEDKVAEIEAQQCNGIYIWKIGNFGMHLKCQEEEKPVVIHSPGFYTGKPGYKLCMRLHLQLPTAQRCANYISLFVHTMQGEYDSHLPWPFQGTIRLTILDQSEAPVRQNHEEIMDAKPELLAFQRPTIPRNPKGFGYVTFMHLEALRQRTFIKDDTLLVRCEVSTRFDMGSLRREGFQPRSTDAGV
Method: as §1, §2

FLAG tagged TRAF 3 = target: T3, FLAG tagged TRAF 3 (UniProt Q13114 1-568, limits assumed)
T3 sequence (looked up): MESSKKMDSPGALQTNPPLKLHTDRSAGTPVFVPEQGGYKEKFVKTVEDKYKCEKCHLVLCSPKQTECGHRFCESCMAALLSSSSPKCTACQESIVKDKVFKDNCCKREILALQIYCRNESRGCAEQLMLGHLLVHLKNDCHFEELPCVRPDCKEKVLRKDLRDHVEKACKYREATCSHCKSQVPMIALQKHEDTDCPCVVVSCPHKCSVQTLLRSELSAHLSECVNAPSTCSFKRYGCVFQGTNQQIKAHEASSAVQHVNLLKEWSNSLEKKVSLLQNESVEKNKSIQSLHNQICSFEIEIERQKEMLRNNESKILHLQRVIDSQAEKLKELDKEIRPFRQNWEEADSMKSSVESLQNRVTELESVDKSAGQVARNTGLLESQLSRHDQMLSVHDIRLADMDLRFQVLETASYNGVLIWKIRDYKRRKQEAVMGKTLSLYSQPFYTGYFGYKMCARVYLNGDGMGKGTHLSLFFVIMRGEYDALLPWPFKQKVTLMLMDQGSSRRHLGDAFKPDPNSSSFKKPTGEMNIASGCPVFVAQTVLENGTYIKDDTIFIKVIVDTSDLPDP
Method: as §1, §2

FLAG tagged TRAF 5 = FLAG tagged TRAF 5 (UniProt O00463 1-557, limits assumed)
Method: as §1, §2

Measured: binding result

Chain of FLAG tagged TRAF 5 (O00463 whole entry): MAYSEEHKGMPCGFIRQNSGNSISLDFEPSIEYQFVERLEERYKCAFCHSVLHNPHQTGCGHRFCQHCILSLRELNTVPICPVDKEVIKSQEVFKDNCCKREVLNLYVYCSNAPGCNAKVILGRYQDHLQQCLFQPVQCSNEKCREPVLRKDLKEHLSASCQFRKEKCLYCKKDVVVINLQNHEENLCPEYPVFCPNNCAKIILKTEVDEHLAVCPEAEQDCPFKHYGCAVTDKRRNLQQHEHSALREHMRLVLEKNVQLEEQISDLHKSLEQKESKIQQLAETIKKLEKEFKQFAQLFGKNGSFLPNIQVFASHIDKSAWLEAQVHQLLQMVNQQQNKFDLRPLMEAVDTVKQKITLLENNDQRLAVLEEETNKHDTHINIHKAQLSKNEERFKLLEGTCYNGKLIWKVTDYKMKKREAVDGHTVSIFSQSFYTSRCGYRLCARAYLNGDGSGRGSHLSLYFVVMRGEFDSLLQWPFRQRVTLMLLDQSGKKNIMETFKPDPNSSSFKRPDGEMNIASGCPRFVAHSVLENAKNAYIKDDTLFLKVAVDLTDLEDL

B1: HA tagged TR12 (TNFR Related Gene 12) (receptor)
chain: STTLWQCPPGEEPDLDPGQGTLCRPCPPGTFSAAWGSSPCQPHARCSLWRRLEAQVGMATRDTLCGDCWPGWFGPWGVPRVPCQPCSWAPLGTHGCDEWGRRARRGVEVAAGASSGGETRQPGNGTRAGGPEETAAQYAVIAIVPVFCLMGLLGILVCNLLKRKGYHCTAHKEVGPGPGGGGSGINPAYRTEDANEDTIGVLVRLITEKKENAAALEELLKEYHSKQLVQTSHRPVSKLPPAPPNVPHICPHRHHLHTVQGLASLSGPCCSRCSQKKWPEVLLSPEAVAATTPVPSLLPNPTRVPKAGAKAGRQGEITILSVGRFRVARIPEQRTSSMVSEVKTITEAGPSWGDLPDSPQPGLPPEQQALLGSGGSRTKWLKPPAENKAEENRYVVRLSESNLVI
notes: Expressed from a plasmid in transfected 293 cells and tested in whole cell lysate; It includes the predicted leader (about residues 1-25), which may be cleaved in cells; also called hemagglutinin tagged TR12; not shown: HA (hemagglutinin) tag
no binding: FLAG tagged TRAF 2 | FLAG tagged TRAF 6 | FLAG tagged TRAF 3 | FLAG tagged TRAF 5
